# Laboratory results: the supplement of paper PMC9732359
# ± gives the uncertainty stated by the source.
# Assay: protein stability index of a GFP-peptide fusion (yeast GPS) (PSI 1-4); higher = more stable; sorted into four equal gates, so the index is relative within each strain
# In short: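 Tiled 17-residue yeast protein peptides were fused downstream of GFP in a plasmid that also expresses Cherry, and the pooled library was carried in yeast. Mid-log cultures in leucine-free medium were sorted into four equal gates by GFP/Cherry fluorescence ratio, and plasmids from each gate were PCR-amplified and Illumina-sequenced, with reads assigned to strains by barcodes. The protein stability index for each peptide was each gate's read frequency times its gate number, summed.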
Sequence,protein stability index (doa10∆),protein stability index (pdr5∆),protein stability index (ubr1∆),protein stability index (san1∆)
SLLDAEEERRKKRESGV [SNF2],3.47 ± 0.08,3.32 ± 0.1,3.47 ± 0.047,–
KKQAQKQTKLRKEKEKK [SMB1],3.04 ± 0.27,–,–,2.46 ± 0.3
TTTNTDQNNATMGEETA [SNF12],3.3 ± 0.076,3.37 ± 0.11,3.21 ± 0.1,3.4 ± 0.076
EQTVSAVTEATSTNGDS [RGR1],3.45 ± 0.16,3.29 ± 0.077,3.43 ± 0.12,3.28 ± 0.083
PSLRDRRERRLIFGTIA [RPT3],1.41 ± 0.08,2.04 ± 0.099,1.85 ± 0.07,1.63 ± 0.079
YCSGNIYDFHKMENLMR [YJL039C/NUP192],2.77 ± 0.068,2.79 ± 0.059,2.73 ± 0.052,2.52 ± 0.05
KSHVLLATPVQFELLSR [BRR2],2.31 ± 0.057,1.58 ± 0.052,2.08 ± 0.049,2.02 ± 0.066
GLTNWAAAYATGLLIAR [RPL5],1.39 ± 0.18,1.26 ± 0.084,1.1 ± 0.027,1.14 ± 0.13
TKEKVNGASVPINLHPS [RPL26A],2.54 ± 0.067,2.73 ± 0.078,2.93 ± 0.064,2.92 ± 0.07
SYLSNSLDTSASTINGA [YML103C/NUP188],2.31 ± 0.058,1.78 ± 0.063,1.84 ± 0.06,1.76 ± 0.065
SKGFVFNSVQKKSRSNL [YAR002W/NUP60],3.03 ± 0.2,–,–,2.96 ± 0.17
YDTTPLLDTNSLEENAM [SKI6],3.08 ± 0.12,2.96 ± 0.082,2.88 ± 0.078,2.97 ± 0.15
CAMSGLTADARSMIEHA [PUP2],2.3 ± 0.13,2.94 ± 0.18,2.64 ± 0.12,–
DMQSSVDTGLQPQHPHY [YLR018C/POM34],2.56 ± 0.043,2.86 ± 0.039,2.956 ± 0.029,2.96 ± 0.036
SLAKSSALWSSRKGIAF [ECM29],1.9 ± 0.069,1.88 ± 0.14,1.59 ± 0.15,1.83 ± 0.12
SQVLDLAKKIAPGKVEL [SMC2],–,3.28 ± 0.19,2.84 ± 0.2,–
GQRPDRATTYEKLTMVF [SIN4],1.27 ± 0.087,1.48 ± 0.067,1.14 ± 0.11,1.53 ± 0.19
NLEIPAYEFDGDKVIVG [RIP1],2.71 ± 0.07,2.61 ± 0.093,2.72 ± 0.077,2.65 ± 0.064
PIKADKDYSQILKEEFP [RPN5],3 ± 0.1,2.46 ± 0.079,2.69 ± 0.062,2.18 ± 0.13
EGLTYKYPARRIHTNDN [SSN3],2.78 ± 0.072,2.89 ± 0.073,2.83 ± 0.055,2.86 ± 0.076
ALDYLIPPPMPKNQQYR [MED7],2.53 ± 0.08,2.58 ± 0.1,2.6 ± 0.078,2.5 ± 0.096
VNDEEEHKQLVAEIVQN [RPC82],2.64 ± 0.12,2.54 ± 0.19,1.66 ± 0.098,2.56 ± 0.14
IIEKITDQILQLLKEDS [RRP45],2.35 ± 0.11,2.5 ± 0.11,2.37 ± 0.13,2.26 ± 0.14
AEDVALNEQVKKFFLNN [NAS6],2.12 ± 0.058,2.18 ± 0.069,2.04 ± 0.068,2.11 ± 0.067
IYRDRSTFTKHLIKCFF [ITC1],2.11 ± 0.043,1.68 ± 0.038,2.26 ± 0.031,2.21 ± 0.046
QTWSYLSLYSTDLENSS [ECM29],2.41 ± 0.064,2.25 ± 0.052,2.76 ± 0.049,2.66 ± 0.05

Sequence,protein stability index (doa10∆),protein stability index (pdr5∆),protein stability index (ubr1∆),protein stability index (san1∆)
KLDIISDPESERPAIEF [RPN14],2.94 ± 0.045,3.05 ± 0.05,3.18 ± 0.039,3.03 ± 0.04
LSKLCVPVANQFINLAG [QCR7],1.98 ± 0.059,2.13 ± 0.071,1.94 ± 0.033,1.81 ± 0.058
VKKILPLYARYINVNPQ [ECM29],2.43 ± 0.056,2.15 ± 0.051,2.72 ± 0.04,3.06 ± 0.051
SPFGAYGEAPTSPGFGV [RPO21],2.87 ± 0.086,3.12 ± 0.052,3.17 ± 0.034,2.98 ± 0.076
SVISGNLSLYEATAASH [CSN12],2.28 ± 0.063,2.87 ± 0.068,2.7 ± 0.057,2.8 ± 0.069
PSRRERRREQTTYSVDD [ISW2],2.65 ± 0.26,3 ± 0.062,2.35 ± 0.14,3.22 ± 0.17
LVSRGGCGNTQPTIRKD [RPO21],2.96 ± 0.07,2.74 ± 0.11,2.9 ± 0.043,2.83 ± 0.043
WQYIVIDEAHRIKNEQS [ISW2],1.48 ± 0.075,1.64 ± 0.08,2.24 ± 0.071,1.23 ± 0.11
EREEAEKKRAEQENMRK [MED2],–,–,–,2.75 ± 0.28
KRGVKGVEYRLRLRISR [RPL31A],1.64 ± 0.12,1.36 ± 0.12,1.78 ± 0.19,–
AGDWKYDRQLSSLFLDG [FAS2],2.16 ± 0.057,2.81 ± 0.065,2.23 ± 0.056,2.34 ± 0.11
NLQTVHFGHCFNITDNG [GRR1],1.22 ± 0.091,–,–,–
AEEAAAEEEEESDDDMG [RPP0],3.62 ± 0.12,2.94 ± 0.15,3.27 ± 0.068,3.23 ± 0.056
SNDKVVEWINPSRRERR [ISW2],–,–,3.34 ± 0.15,–
HGQLKLSIQYMIQKVME [RPN5],2.17 ± 0.1,2.73 ± 0.081,2.84 ± 0.085,2.04 ± 0.15
KKTKFLSPSGHKTFLVA [RPL32],–,–,–,1.44 ± 0.27
VKKVVKEQTEAAKKSEK [RPL34A],3.37 ± 0.14,3.4 ± 0.1,3.31 ± 0.076,3.19 ± 0.038
GRKHVAALRTVKSLVDN [RPL9A],2.99 ± 0.12,3.17 ± 0.079,2.96 ± 0.071,2.91 ± 0.092
LKKLKAMNDACYEKVLE [BRR2],3.18 ± 0.074,3.26 ± 0.061,3.05 ± 0.058,3.12 ± 0.039
GINPNTFRIFHNHDTGC [YDL088C/ASM4],1.83 ± 0.073,1.85 ± 0.082,1.44 ± 0.047,1.4 ± 0.15
IYQHLASHNEKDQDSQI [SRP72],2.58 ± 0.092,2.45 ± 0.074,2.78 ± 0.099,2.53 ± 0.12
FEENDHPNRVLEHLHST [COR1],2.96 ± 0.049,2.95 ± 0.052,3.07 ± 0.049,3 ± 0.055
FTNLGIIVQYLTKFRQK [RGR1],2.46 ± 0.053,2.64 ± 0.087,2.28 ± 0.07,2.35 ± 0.066
EGRSFTKAIEDAKKEMK [YLR335W/NUP2],2.87 ± 0.066,2.7 ± 0.062,2.59 ± 0.081,2.83 ± 0.06
RRLAFLGIKVAELTGDS [BRR2],–,2.24 ± 0.19,–,2.71 ± 0.16
MQTALRRLPEDESYARA [QCR7],2.78 ± 0.058,2.5 ± 0.066,2.39 ± 0.044,2.34 ± 0.05
